Assay [1] has as its target T1, Human Tissue Factor (human).
T1 chain: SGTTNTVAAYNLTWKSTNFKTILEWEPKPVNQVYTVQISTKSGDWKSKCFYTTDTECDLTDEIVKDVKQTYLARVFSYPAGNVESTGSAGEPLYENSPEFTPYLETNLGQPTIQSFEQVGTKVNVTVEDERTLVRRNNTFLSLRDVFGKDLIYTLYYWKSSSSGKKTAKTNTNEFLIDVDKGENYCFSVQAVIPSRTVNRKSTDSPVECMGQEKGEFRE
Description: BLI, batch 2. For orientation: BLI is a label-free optical method that tracks binding on a fibre tip over time.

Assay [2] deals with T2, Cynomolgus Tissue Factor (cynomolgus).
T2 chain: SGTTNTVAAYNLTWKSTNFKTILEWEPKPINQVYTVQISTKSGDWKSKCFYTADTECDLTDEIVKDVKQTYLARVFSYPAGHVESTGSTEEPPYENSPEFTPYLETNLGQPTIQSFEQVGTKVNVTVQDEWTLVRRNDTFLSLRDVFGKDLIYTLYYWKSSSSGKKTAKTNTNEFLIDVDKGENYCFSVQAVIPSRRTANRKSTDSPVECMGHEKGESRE
Kind of assay: BLI, batch 1.

Assay [3] concerns the target T1, Human Tissue Factor. Kind of assay: BLI, batch 1.
The target of assay [4] is T3, Mouse Tissue Factor (mouse).
T3 chain: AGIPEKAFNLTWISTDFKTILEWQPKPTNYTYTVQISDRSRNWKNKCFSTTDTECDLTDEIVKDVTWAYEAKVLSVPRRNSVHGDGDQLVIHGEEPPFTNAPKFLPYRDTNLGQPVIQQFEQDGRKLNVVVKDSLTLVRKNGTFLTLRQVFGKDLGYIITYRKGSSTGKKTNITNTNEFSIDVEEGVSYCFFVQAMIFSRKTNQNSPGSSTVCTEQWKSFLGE
Kind of assay: BLI, batch 1.

The target in assay [5] is T2, Cynomolgus Tissue Factor. Description: BLI, batch 2.
Assay [6] addresses T3, Mouse Tissue Factor. Description: BLI, batch 2.
Assay [7] concerns the target T2, Cynomolgus Tissue Factor. Description: BLI.
The target of assay [8] is T1, Human Tissue Factor. Description: BLI.
Assay [9] addresses T3, Mouse Tissue Factor. Kind of assay: BLI.

B1: EXMA-006 (antibody)
chain 1: QVQLVQSGAEVKKPGASVKVSCKASGYTFDVYGISWVRQAPGQGLEWMGWIAPYSGNTNYAQKLQGRVTMTTDTSTSTAYMELRSLRSDDTAVYYCARDAGTYSPFGYGMDVWGQGTTVTVSS
chain 2: DIQMTQSPSTLSASVGDRVTITCQASQSINNWLAWYQQKPGKAPKLLIYKAYNLESGVPSRFSGSGSGTEFTLTISSLQPDDFATYYCQLFQSLPPFTFGGGTKVEIK
modifications: unconjugated TF antibody; representative batches 1 and 2
One may read the Kd as the free concentration of one partner at which half of the binding sites on the other are occupied at equilibrium, for simple one-to-one binding. A high value points to lower affinity. Turning to B1, the Kd in assay [1] is 36 µM; in assay [2] it was 0.000673 µM; in [3], 0.00113 µM; in assay [4], 0.107 µM; in assay [5] it was 240 µM; in assay [6], 2000 µM.

B2: TF-ADC 6-8 (antibody)
chain 1: not shown
chain 2: DIQMTQSPSTLSASVGDRVTITCQASQSINNWLAWYQQKPGKAPKLLIYKAYNLESGVPSRFSGSGSGTEFTLTISSLQPDDFATYYCQLFQSLPPFTFGGGTKVEIKRTVAAPSVFIFPPSDEQLKSGTASVVCLLNNFYPREAKVQWKVDNALQSGNSQESVTEQDSKDSTYSLSSTLTLSKADYEKHKVYACEVTHQGLSSPVTKSFNRGEC
modifications: ADC, linker-payload conjugated at fGly' in CH1 and C-terminus, DAR about 8
As to B2, the figures for the Kd in assay [7], in assay [8] and in assay [9] were 19 µM, 7.1 µM and 210 µM, respectively.

The record behind these values is patent publication US20260325667 (published 2026).
